Experimental data: the supplement of paper PMC11908140

B1: library; numbered along this chain (parent)
chain: MRKPRAAVGSGHRKQAASQEGRQKHAKNNSQAKPSACDGLARQPEEVVLQASVSSYHLFRDVAEVTAFRGSLLSWYDQEKRDLPWRRRAEDEMDLDRRAYAVWVSEVMLQQTQVATVINYYTGWMQKWPTLQDLASASLEEVNQLWAGLGYYSRGRRLQEGARKVVEELGGHMPRTAETLQQLLPGVGRYTAGAIASIAFGQATGVVDGNVARVLCRVRAIGADPSSTLVSQQLWGLAQQLVDPARPGDFNQAAMELGATVCTPQRPLCSQCPVESLCRARQRVEQEQLLASGSLSGSPDVEECAPNTGQCHLCLPPSEPWDQTLGVVNFPRKASRKPPREESSATCVLEQPGALGAQILLVQRPNSGLLAGLWEFPSVTWEPSEQLQRKALLQELQRWAGPLPATHLRHLGEVVHTFSHIKLTYQVYGLALEGQTPVTTVPPGARWLTQEEFHTAAVSTAMKKVFRVYQGQQPGTCMGSKRSQVSSPCSRKKPRMGQQVLDNFFRSHISTDAHSLNSAAQ

Variants of: B1
Assay: 8OG:A repair function score (normalized; synonymous = 0, nonsense = -1) (normalized log-likelihood score); higher = more repair activity (WT-like)
Details: with 8OG:A DNA repair reporter (GFP) in HEK-293 MUTYH KO cells
Protocol: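 Saturation mutagenesis (NNN codon scan) of the MUTYH cDNA (521-aa nuclear isoform NM_001048174.1 / NP_001041639), stably expressed under doxycycline induction in HEK-293 MUTYH knockout cells. Cells were co-transfected with an 8OG:A-bearing GFP repair reporter plus mCherry and sorted 72 h later into GFP+ and GFP− bins, three replicates per tile. The Rosace log2 enrichment (GFP+ vs GFP−) was converted per tile to a normalized function score with synonymous variants centered at 0 and nonsense variants (codons 1-471) at -1; low-abundance variants were removed.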

Variant	8OG:A repair function score
V107H	-0.608
A63K	-0.00172
L516G	0.00843
S71Y	-0.0584
K333G	-0.131
L355C	-0.0489
E375L	-0.83
G326N	-0.0169
G193I	-0.531
V142C	-0.143
Y152V	-0.573
Q50K	0.0673
V117I	-0.166
E167L	0.00804
C347F	-0.387
H454L	-0.234
Y469Q	-0.317
A192Y	-1.07
G201D	-0.0211
S490C	-0.0291
R42P	-0.176

Variant	8OG:A repair function score
E395Q	-0.276
A115T	-0.106
S515H	-0.0115
P320R	-0.0447
Q113E	-0.529
A41F	0.0355
M93Y	-0.0084
R332I	-0.256
Q159R	0.162
T112R	-0.922
E382K	-0.213
Q310E	-0.0263
E452H	-0.275
W447V	-0.846
R467F	-0.0681
H312Y	-0.0454
Y428P	-1.18
Q265W	-0.0937
H508I	-0.0148
Q232V	-0.243
T130S	0.107

Variant	8OG:A repair function score
H410T	-0.322
L183Q	0.0196
V207A	-0.78
R266A	-0.0544
V485N	-0.00234
G236P	-0.455
V301Q	-0.242
T112Y	-1.19
L158W	-0.991
P174D	-0.922
G356D	-0.142
E256V	-1.14
R217I	-1.03
T308I	-0.0904
L387K	0.00861
Y100F	-0.679
Q310G	-0.0488
R86C	-0.587
W447D	-1.18
S490M	-0.0481
T439W	0.0448

Variant	8OG:A repair function score
T439N	-0.0163
G148M	-1.1
S480P	-0.000393
L139V	0.0777
D300I	-0.191
T112S	-0.314
V214H	-0.795
S515T	-0.00495
R332H	-0.163
P443L	0.058
D82N	0.00375
V415L	0.0523
Q351C	-0.0209
R398Q	-0.525
S335C	-0.0251
G471R	0.00545
D94V	-0.128
Q182I	-0.0148
Q473H	0.0203
L73G	-0.786
